B1: human Fat4(EC1–4) [human] / human Dchs1(EC1–4) [human] (parent complex)
chain 1: DPAEPRQVFQVLEEQPPGTLVGTIQTRPGFTYRLSESHALFAINSSTGALYTTSTIDRESLPSDVINLVVLSSAPTYPTEVRVLVRDLNDNAPVFPDPSIVVTFKEDSSSGRQVILDTATDSDIGSNGVDHRSYRIIRGNEAGRFRLDITLNPSGEGAFLHLVSKGGLDREVTPQYQLLVEVEDKGEPKRRGYLQVNVTVQDINDNPPVFGSSHYQAGVPEDAVVGSSVLQVAAADADEGTNADIRYRLQDEGTPFQMDPETGLITVREPLDFEARRQYSLTVQAMDRGVPSLTGRAEALIQLLDVNDNDPVVKFRYFPATSRYASVDENAQVGTVVALLTVTDADSPAANGNISVQILGGNEQRHFEVQSSKVPNLSLIKVASALDRERIPSYNLTVSVSDNYGAPPGAAVQARSSVASLVIFVNDINDHPPVF
chain 2: DPQAGSLDLQIDEEQPAGTLIGDISAGLPAGTAAPLMYFISAQEGSGVGTDLAIDEHSGVVRTARVLDREQRDRYRFTAVTPDGATVEVTVRVADINDHAPAFPQARAALQVPEHTAFGTRYPLEPARDADAGRLGTQGYALSGDGAGETFRLETRPGPDGTPVPELVVTGELDRENRSHYMLQLEAYDGGSPPRRAQALLDVTLLDINDHAPAFNQSRYHAVVSESLAPGSPVLQVFASDADAGVNGAVTYEINRRQSEGDGPFSIDAHTGLLQLERPLDFEQRRVHELVVQARDGGAHPELGSAFVTVHVRDANDNQPSMTVIFLSADGSPQVSEAAPPGQLVARISVSDPDDGDFAHVNVSLEGGEGHFALSTQDSVIYLVCVARRLDREERDAYNLRVTATDSGSPPLRAEAAFVLHVTDVNDNAPAF
B2: human Dchs1(EC1–4) [human] / human Fat4(EC1–4) [human] (parent complex)
chain 1: B1 chain 2
chain 2: B1 chain 1

Variants of: B1
Test: ITC; parent: 1; read off a plot

Variant | ratio to parent
chain 1 DPAEPRQVFQVLEEQPPGTLVGTIQTRPGFTYRLSESHALFAINSSTGALYTTSTIDRESLPSDVINLVVLSSAPTYPTEVRVLVRDLNDNAPVFPDPSIVVTFKEDSSSGRQVILDTATDSDIGSNGVDHRSYRIIRGNEAGRFRLDITLNPSGEGAFLHLVSKGGLDREVTPQYQLLVEVEDKGEPKRRGYLQVNVTVQDINDNPPVFGSSHYQAGVPEDAVVGSSVLQVAAADADEGTNADIRYRLQDEGTPFQMDPETGLITVREPLDFEARRQYSLTVQAMDRGVPSLTGRAEALIQLLDVNDNDPVVKFRYAPATSRYASVDENAQVGTVVALLTVTDADSPAANGNISVQILGGNEQRHFEVQSSKVPNLSLIKVASALDRERIPSYNLTVSVSDNYGAPPGAAVQARSSVASLVIFVNDINDHPPVF [chain 1 F318A] | ~1.8

Variants of: B2
Test: ITC; parent: 1; read off a plot

Variant | ratio to parent
chain 1 DPQAGSLDLQIDEEQPAGTLIGDISAGLPAGTAAPLMYAISAQEGSGVGTDLAIDEHSGVVRTARVLDREQRDRYRFTAVTPDGATVEVTVRVADINDHAPAFPQARAALQVPEHTAFGTRYPLEPARDADAGRLGTQGYALSGDGAGETFRLETRPGPDGTPVPELVVTGELDRENRSHYMLQLEAYDGGSPPRRAQALLDVTLLDINDHAPAFNQSRYHAVVSESLAPGSPVLQVFASDADAGVNGAVTYEINRRQSEGDGPFSIDAHTGLLQLERPLDFEQRRVHELVVQARDGGAHPELGSAFVTVHVRDANDNQPSMTVIFLSADGSPQVSEAAPPGQLVARISVSDPDDGDFAHVNVSLEGGEGHFALSTQDSVIYLVCVARRLDREERDAYNLRVTATDSGSPPLRAEAAFVLHVTDVNDNAPAF [chain 1 F39A] | ~4.4
